This is an account of results in the DeepSol protein solubility set.

The data set is described as follows: soluble on expression in E. coli; label from the status in PepcDB or PDB records.
On to “GHMYAIAEDTLPARVLKELLLYRRRYPEHRQSASEADEIRRIEQVQLPRIAAFIEAGEPIEFVLPAFPAKSPNPGKVLDSRPDMAERLSLSFLNHLCQRIQLFYAPGAKITVCSDGRVFGDLVRIGDAHISAYQDALRLMIEEIGATHIGVFNLEDVRAFEAQRDNHEQLRQLLIGGYAEPLESIRETLLASEEGLLLYRAITRFLYEDGLTPDYQGSKTALQRDAKERAYGVIQRSWAWGALLADQFPRAIRLSIHPQPADSLKFGIHMMPTRDDWLTPWHGVAVNTEDRFVLMKRSEVLELGGELVQINGQPSHYRLPARAARRAAVA”, for which the “soluble on expression in E. coli” value is on record as “soluble”.

With “TFGEEESEACKKAFDLSPFPLLSKQKEAVFTAIESSISAIIGGAGTGKTTVLHAVLTAFEALGYVSDASLCPDKTTTNHNIKTMALSCRAAKRMRDCINKSSDGSRRERQISATSIAQFIHQTVIEDAEGKYLVVIDEASMLDVATMYNIITNIHPNVRILLVGDHYQLPPI”, the “soluble on expression in E. coli” value is on record as “not soluble”. With “MPPLECDVLVIGSGASGLAAAVTAAHHGLTVVVAEKASQLGGTSAWSGGWLWIPRNPLAIAEGIVEADDAPERYLRAQTHTRELDPRQRAFLRHGPEMVAFFEQHTAVQFQCGSRMPDMREGDGSARGGRSLCALPYDGRRLGPWLHKLRPPLDIVSLAGMGIAGGADMAAFFNATRSPKAALHVGKRLLRHGRDLLLHRRGLHLVNGNALVARLLRSALDRGVTLLTEKAASRLLLCEERVNGALFADGQAIYARRGVVLACGGFPHDRQRISQLMPHAPDGDQHYSAAPRENSGDGLRLGEQAGGRVSAAGAHGGAWAPVSQVPRRNGHFGHFPHLIDRAKPGFIAVRRDGRRFVNEADCYHDFMNALFAATPQAEQPEAWLICDHAAQRRYGIGWAKPFPFPTRFYQRSGYLHSGATLAQLAQRCGIDAEQLQRTVEGFNHHAAQGEDPTFLRGASAYNRAQGDPQQVPNPSLRPLLKGPFHAVKLLPGSLGTFAGLDTDASARVLDHAGQPIPGLFAVGNDMHSVMGGYYPSGGITLGPGMTFGYLAGRALSAGCADHLEHHHHHH”, the “soluble on expression in E. coli” value is given as “not soluble”. Turning to “MGSDKIHHHHHHMTSANIQMAVYCFDVINAQLNREKEPPVPKEIPNVKLPLFVTWKKGHQHDLRGCIGTFSDLRLGEGLNEYAKTSAFHDSRFKPISREEVPSLQCGVSLLINFEPIHNFRDWTIGRHGVRMNFDDGHRNRSAVFLPEVAQEQGWNHVETIDHLIRKSGYGGHINDALRSALRIVRFQSSKLVLDYKDYVNYKQSHGLPLPR”, the “soluble on expression in E. coli” value is “not soluble”. As for “SYLPAENHEYVAAKEGVMNIQTNQVMKVIFQLPDYLLNRYTQGVNVSAKMIFDAFPERSFDLTFQEIDTEADPKTGSYKVTMVMERPPELGILPGMSGNAYLVSQNSGATKIPDSALFEENGKTYVWRVDDQGVVAKADITMNDNGQILQGLADGDQIIISGINVIEPGIKVRAWVKERGL”, the “soluble on expression in E. coli” value is “not soluble”.

For “MSADHDHDHDHDHDHKPAPMVEEVSDFEILEMAVRELAIEKGLFSAEDHRVWKDYVHTLGPLPAARLVAKAWLDPEYKKLCIEDGVEASKAVGVNWVTSPPTQFGTPSDYCNLRVLADSPTLKHVVVCTLCSCYPRPILGQSPEWYRSPNYRRRLVRWPRQVLAEFGLQLPSEVQIRVADSNQKTRYIVMPVRPEGTDGWTEDQLAEIVTRDCLIGVAVPKPGITVNAKRPVLKANRPVHHDH”, the “soluble on expression in E. coli” value is “soluble”. Consider “MGSDKIHHHHHHMTIFERSKKGRKAFRLPESDIPEYSLPDRFLRRTPPELPEVSEPDLVRHYTNLARKNYSVDLGIYPLGSCTMKYNPKLNEKAANLEGFREIHPYQPVETVQGSLRLMYELKKMLCEITGMDDMTLQPAAGAHGELTGMLIVREYFKNRGDTGRKKVLVPDSAHGTNPASASMVGFEVVEIKSKNGMVDVEDLKKLLDEEVAAVMLTNPNTLGLFEKDILKIAEMTHECGALLYYDGANLNAIMGKVRPGDMGFDIVHLNLHKTFSTPHGMGGPGSGPVGVKKHLVDFLPFPQVKKNGELYELFVPEKTIGRVRSFFGNFPVLVKAYTYILTMGRDGLERVSEMAVLNANYLKKKIEKFLEIPYNGFCMHEFVASAEKVFRETGVRTLDIAKRILDFGVHPPTVYFPLIVPEALMIEPTETENKETLDKYAEILERVVKEAYENPDALKNAPHNTPVRRVNEVLASKKPVFRWRG”, for which the “soluble on expression in E. coli” value is listed as “not soluble”. Regarding “MLLLRITMLEGRSTEQKAELARALSAAAAAAFDVPLAEVRLIIQEVPPTHWTVGGISMAELRQQASTSTQGQ”, the “soluble on expression in E. coli” value was “soluble”. Take “MGSDKIHHHHHHMKMCYNEKRKNMTLRHPGISPTNDSVAKKIFSNPEITWQFIRDMLDLPAKNVTILEGSNIHVLPSLPYSAQDFYTSINVLAELDNGTQVIIEIQVHHQNFFINRLWAYLCSQVNQNLEKIRQREGDTHQSYKHIAPVYAIAIVNSNYFQDDLAFHSFSMREDTTGEALTITNNSQENHLVKMAFLELKKYRETSKDKIRKPWLEFFGNKPFTQQPERAISQAYQLLDYKSWSEEDRKMFSEQRRREEQALLAQDYALEQAEEKGLERGKVEGREEGKLFAFLDMVRQGLLTSEVASQQLGMTVAEFEALL”: the “soluble on expression in E. coli” value is given as “not soluble”. In the case of “STTTTTKKPHVLVIPFPQSGHMVPHLDLTHQILLRGATVTVLVTPKNSSYLDALRSLHSPEHFKTLILPFPSHPCIPSGVESLQQLPLEAIVHMFDALSRLHDPLVDFLSRQPPSDLPDAILGSSFLSPWINKVADAFSIKSISFLPINAHSISVMWAQEDRSFFNDLETATTESYGLVINSFYDLEPEFVETVKTRFLNHHRIWTVGPLLPFKAGVDRGGQSSIPPAKVSAWLDSCPEDNSVVYVGFGSQIRLTAEQTAALAAALEKSSVRFIWAVRDAAKKVNSSDNSVEEDVIPAGFEERVKEKGLVIRGWAPQTMILEHRAVGSYLTHLGWGSVLEGMVGGVMLLAWPMQADHFFNTTLIVDKLRAAVRVGENRDSVPDSDKLARILAESAREDLPERVTLMKLREKAMEAIKEGGSSYKNLDELVAEMCL”, the “soluble on expression in E. coli” value is listed as “soluble”.

For the sequence “MLLSLYIPPGRPIPDVLNLLRQEYSIAQNIKLKRTRDAVTSAIQSAIDRLTQIPKVPDNGLVIFCGENFETEESKCFVFSPPEKVTIFFYRTDKYFHTEFLEDMIEENDVFGLIIVERDYATIGILKGTRIEVLDEFEGFVPGKHMMGGQSQRRIDRIIEEMYANFLKEVGEKANSYLLPYLESGKLKGILLGGPGYAKKDFYDGDYLDYRLKKLVLLPLIDIPDQGDAGLKELVMKAQDILKNQKYVQVQNLLEELKYHIAKDDGLVVYGIEEIRKALHMGAVDSLVIYDEPNSELEKLSQEAENYGTKVYVVGDELPDAEWVKKTFGGAIGKLRYKIY”, the “soluble on expression in E. coli” value was “soluble”.

Regarding “MSLNYNTPKVSIVVPSLNSISYIRECIDSILNQTLKDIEILCIDANSTDGTLEVLKNYEKKDKRLRVIISDKKSYGYQMNLGIKEAKGEYLGIVESDDYIKTNMYERLYEIAKKNDCEVVKGDFYIFAYGKTEYVNVLRNSCEDIYNYKVNWNKDIRIFLGSDGINPIGIYRLDLLRTNQIKLNETPGASYQDNGLWFQIFALAKSIYFINEAFYMLRRDNPNSSVKSKEKVYCACEEYDFIRDFLKKHPDLEKTLAPICALHRFGNYMFTLERIDERYKLDFLKRFSQDFRKILKDKELDENLFGNINMQRINKIIENPVIYYYFSRGARARLQNQLVYRLGKVVVEAKSFNKIIKLPFLMLKICLEHNFEHKVYRSIVQFRPDLKLLPLECYLDYHEALVIKEHLSYKFGKLILLSFKGWYKGKIFILPFMLKKRYKEYKNKMEGHHHHHH”, the “soluble on expression in E. coli” value was “soluble”. For “MPRLTDDDKKLLLMLAREAIVTYVREGITPATELSVPSLCEHYGCFVCIKKGGELRGCIGNFTSSQPLYQLVREMAVSAATRDPRFYPMTSKDITDFSLEISVLSPLEKISSPEQITVGTHGIYIEKNFFRGVLLPQVATEYGWDRDTFLMQTCVKAGLKPDDWRDGADIYIFSAEVFSLEHHHHHH” the value was “not soluble”.

Take “MSLYTYIDLFAGPGGLCTGFKNAGFKPLIAVEMSDNTVKTYARNHEAEVYSLQELLENKGRLEEILNINTDNTCLIHGDIRLVDNDIIVEILQKKFKTNSVDVVAGGPPCESFSLAGKRIDGDERDDLFKNMLRIASISNSKFIFFENVPGLLTKKSNNIKVFDVIVEEFDNYGYNLASTDKNIIKCLAADYGVPQNRERVFLIGINKMYGENPYIYPEKTHGEGRKFEYISVSDALRYLPELNSGEGADIQQITYNFEEDFRKGKISEAVYNYLKFIAGKEGYIPPHIKESIDDGLIEIHKAVKHREKMINRMSYIKQGEGMKKAAERLINEGKEDIVRAYFPNKLYAARNRRLKANEPSFTVTSHCLDEMVHPYNNRGLTPREAARLQSFPDWYVFEGEYVKFHSDPQQDKYEQCGDAIPVLLVKALAEQLKIALNIVSERTSINEGHHHHHH”: the “soluble on expression in E. coli” value is listed as “not soluble”. As to “MNNQKQQKPTLSGQRFKTRKRDEKERFDPTQFQDCIIQGLTETGTDLEAVAKFLDASGAKLDYRRYAETLFDILVAGGMLAPGGTLADDMMRTDVCVFAAQEDLETMQAFAQVFNKLIRRYKYLEKGFEDEVKKLLLFLKGFSESERNKLAMLTGVLLANGTLNASILNSLYNENLVKEGVSAAFAVKLFKSWINEKDINAVAASLRKVSMDNRLMELFPANKQSVEHFTKYFTEAGLKELSEYVRNQQTIGARKELQKELQEQMSRGDPFKDIILYVKEEMKKNNIPEPVVIGIVWSSVMSTVEWNKKEELVAEQAIKHLKQYSPLLAAFTTQGQSELTLLLKIQEYCYDNIHFMKAFQKIVVLFYKAEVLSEEPILKWYKDAHVAKGKSVFLEQMKKFVEWLKNAEEESESEAEEGD”, the “soluble on expression in E. coli” value was “soluble”.

Turning to “MKLAARVESVSPSMTLIIDAKAKAMKAEGIDVCSFSAGEPDFNTPKHIVEAAKAALEQGKTRYGPAAGEPRLREAIAQKLQRDNGLCYGADNILVTNGGKQSIFNLMLAMIEPGDEVIIPAPFWVSYPEMVKLAEGTPVILPTTVETQFKVSPEQIRQAITPKTKLLVFNTPSNPTGMVYTPDEVRAIAQVAVEAGLWVLSDEIYEKILYDDAQHLSIGAASPEAYERSVVCSGFAKTYAMTGWRVGFLAGPVPLVKAATKIQGHSTSNVCTFAQYGAIAAYENSQDCVQEMLAAFAERRRYMLDALNAMPGLECPKPDGAFYMFPSIAKTGRSSLDFCSELLDQHQVATVPGAAFGADDCIRLSYATDLDTIKRGMERLEKFLHGIL”, the “soluble on expression in E. coli” value is on record as “soluble”. Regarding “MNELQAYHLSRNQFCPNLFFLAMNNVAQTDTPQQYDLRILRALRRITRSIALHSRQLAAVSHITAPQLMCLRAVIAGGPMTATAISREIHVSPSTVVGILDRLEDKGLIRRERGREDRRIVFVTATEGGRTLAAEAPSPLQKHLADGLNALPELEQATITLALERIVALMEQEGHAVEAAGEGSPPILEMPTGGAPPESGLVV”, the “soluble on expression in E. coli” value is reported as “not soluble”. As to “GAMAPERPLVGVNGLDVTSLRPFDLVIPFTIKKGEITGEVRMPSGKVAQPTITDNKDGTVTVRYAPSEAGLHEMDIRYDNMHIPGSPLQFYVDYVNCGHVTAYGPGLTHGVVNKPATFTVNTKDAGEGGLSLAIEGPSKAEISCTDNQDGTCSVSYLPVLPGDYSILVKYNEQHVPGSPFTARVTGDD”, the “soluble on expression in E. coli” value is reported as “soluble”. Consider “MNSLLAELNRLGVAHATTEDVFIFVDRLFQHFSFLFQAEESGPRRLELVASVFEHLTVECVNDILDACSHPDVNVAETSNTCRPCPSPVPSAPKTVSGAQTSCATPRAPVTLEHHHHHH”, for which the “soluble on expression in E. coli” value is “not soluble”.
